These results are taken from article PMC12379891.

In this experiment the target is AeCRK^G359E (kinase-dead cysteine-rich receptor-like kinase of Aeschynomene evenia), mCherry-tagged and YFP-tagged copies (Aeschynomene evenia). As to the kind of experiment: co-IP.

The substance “AeCRK^G359E (kinase-dead cysteine-rich receptor-like kinase of Aeschynomene evenia), mCherry-tagged and YFP-tagged copies” registered a fold enrichment in the co-IP over the negative control MtLYK3-CFP of 7.37 fold. The result for “AeRLCK2-YFP (receptor-like cytoplasmic kinase 2 of Aeschynomene evenia) (natural protein)” reads 2.9 fold.
